Details in all cases: both partners purified
The target in test [1] is T1, Biotin-linker-NPNANPNANPNANPNA-NH2 (NPNA)4 (Plasmodium falciparum, reading uncertain; also: biotin-linker structure not given here, printed as Biotin-linker-NPNANPNANPNANPNA-NH2 (NPNA)4).
T1 construct: four NPNA repeats of the central NANP repeat region of the Plasmodium falciparum circumsporozoite protein (PfCSP); The linker between biotin and peptide is not described; also called NANP peptide; called (NPNA)3 in the results on BLI; source: synthetic peptide, bought: Innopep Inc
T1 chain: {Biotin-linker}-NPNANPNANPNANPNA-NH2
The test can be described thus: BLI; biotinylated peptide captured on streptavidin sensors, dipped into serial dilutions of Fab in Kinetics buffer (Dulbecco's PBS, 0.002% Tween20, 0.01% BSA), 25 °C, Octet Red. Background: In BLI a coated tip is dipped into the sample, and binding shifts an interference pattern.

Test [2] deals with T2, Ac-NPNANPNANPNA-NH2 [(NPNA)3] (Plasmodium falciparum 3D7).
T2 construct: three NPNA repeats of the central NANP repeat region of the Plasmodium falciparum circumsporozoite protein (PfCSP); numbers count on: the peptide (N1-A12); also called (NPNA)3 peptide; source: synthetic peptide, bought: Innopep Inc., 98% purity
T2 chain: Ac-NPNANPNANPNA-NH2
Kind of test: crystal structure; Fab at 11 mg/mL in TBS with a 5:1 molar ratio of peptide to Fab, crystals grown at 293 K.

The target in test [3] is T3, Biotin-linker-NPNANPNANPNANPNA-NH2 (NPNA)4 (Plasmodium falciparum, reading uncertain; also: biotin-linker structure not given here, printed as Biotin-linker-NPNANPNANPNANPNA-NH2 (NPNA)4).
T3 construct: four NPNA repeats of the central repeat region of Plasmodium falciparum circumsporozoite protein (PfCSP); also called NANP peptide; source: synthetic peptide, ordered from Innopep Inc
T3 chain: {Biotin-linker}-NPNANPNANPNANPNA-NH2
The test can be described thus: BLI; Octet Red; biotinylated peptide (10 ug/mL) captured on streptavidin sensors, dipped into serial dilutions of Fab in Kinetics buffer (Dulbecco's PBS, 0.002% Tween20, 0.01% BSA); 25 C; Fab667-Junc fitted to a biphasic binding model; errors are fitting errors.

The target in test [4] is T4, Biotin-linker-KQPADGNPDPNANPNV-NH2 (Junc) (Plasmodium falciparum, reading uncertain; also: biotin-linker structure not given here, printed as Biotin-linker-KQPADGNPDPNANPNV-NH2 (Junc)).
T4 construct: junctional region of the Plasmodium falciparum circumsporozoite protein (PfCSP), end of the N-terminal domain and first repeats; numbers count on: the peptide (K1-V16); The linker between biotin and peptide is not described; also called junctional peptide; source: synthetic peptide, bought: Innopep Inc
T4 chain: {Biotin-linker}-KQPADGNPDPNANPNV-NH2
Kind of test: BLI; biotinylated peptide captured on streptavidin sensors, dipped into serial dilutions of Fab in Kinetics buffer (Dulbecco's PBS, 0.002% Tween20, 0.01% BSA), 25 °C, Octet Red.

Test [5] addresses T5, Ac-KQPADGNPDPNANP-NH2 (Junc) (Plasmodium falciparum 3D7).
T5 construct: junctional region of the Plasmodium falciparum circumsporozoite protein (PfCSP); numbers count on: the peptide (K1-P14); also called junctional peptide for crystallography; source: synthetic peptide, bought: Innopep Inc., 98% purity
T5 chain: Ac-KQPADGNPDPNANP-NH2
Kind of test: crystal structure; Fab at 11 mg/mL in TBS with a 5:1 molar ratio of peptide to Fab, crystals grown at 293 K.

The target in test [6] is T6, Biotin-linker-KQPADGNPDPNANPNV-NH2 (Junc) (Plasmodium falciparum, reading uncertain; also: biotin-linker structure not given here, printed as Biotin-linker-KQPADGNPDPNANPNV-NH2 (Junc)).
T6 construct: junctional region between the N-terminal domain and the central repeats of Plasmodium falciparum circumsporozoite protein (PfCSP); also called junctional peptide; source: synthetic peptide, ordered from Innopep Inc
T6 chain: {Biotin-linker}-KQPADGNPDPNANPNV-NH2
The test can be described thus: BLI; Octet Red; biotinylated peptide (10 ug/mL) captured on streptavidin sensors, dipped into serial dilutions of Fab in Kinetics buffer (Dulbecco's PBS, 0.002% Tween20, 0.01% BSA); 25 C; Fab667-Junc fitted to a biphasic binding model; errors are fitting errors.

*: point of attachment. Biotin = O=C1N[C@H]2[C@H](CS[C@H]2CCCCC(=O)*)N1; linker = not defined here

B1: Fab667 (Fab, V domains shown)
VH: QVQLVQSGAEVKKPGASVKVSCRASGYTFTNYAMHWVRQAPGQRLEWMGWINAGNGYTKYSQKFQDRVTITRDTSATTAYMELSSLRSEDTAMYYCARDSFYDILSGPVYHYYGMDVWGQGTTVTVSS
VL: QSALTQPDSVSGSPGQSITISCTGTSNDVGIYNHVSWYQQHPGKAPKLMIYDVNKRPSGISNRFSGSKSGDTASLTISGLQAEDEADYYCCSYAGSSAWVFGGGTKLTVL
notes: Fab heavy chain; germline VH1-3*01; CDR H3 of 19 residues; lambda light chain; germline Vλ2-23*02; source: purified
Consider B1, for which the Kd (as a rule, the equilibrium constant for the complex coming apart) in test [1] worked out at 170 nM. The binding result in test [2] is reported as “binds”.

B2: Fab667 (Fab, V domains shown)
VH: B1 VH
VL: B1 VL
notes: Germline genes VH1-3*01 and Vlambda2-23*02; CDR H3 of 19 residues; also called mAb667 (as IgG)
B2: in test [3], binding was put at a Kd of 176 nM, the koff (commonly a measure of how fast the partners let go of each other) was 0.00429 s⁻¹ and the kon (commonly the rate constant with which the complex forms) amounted to 24400 M⁻¹ s⁻¹.

B3: Fab668 (Fab, V domains shown)
VH: QVQLVQSGAEVKKPGASVKVSCKASGFTFTDYAMHWVRQAPGQRLEWMGWINAGNGYTKYSQKFQDRLTITRDTFASTVYMELSSLRSEDTTVYYCARDGFCPSNTCSGYYGMDVWGQGTTVTVSS
VL: QSALTQPASVSGSPGQSITISCTGTSSDVGSYNYVSWYQQHPGKAPKLMIYDVNTRPSGVSIRFSASKSGNTASLTVSGLQAEDEAVYYCSSYAGSSTWVFGGGTKLTVL
notes: Fab heavy chain; germline VH1-3*01; CDR H3 of 17 residues with a disulfide between Cys98 and Cys100C; lambda light chain; germline Vλ2-23*02; source: purified
Consider B3, for which the dissociation constant Kd in test [4] turned out to be 206 nM; in test [1] it was 56 nM. The binding result in test [5] was “binds”.

B4: Fab668 (Fab, V domains shown)
VH: B3 VH
VL: B3 VL
notes: Germline genes VH1-3*01 and Vlambda2-23*02; CDR H3 of 17 residues; also called mAb668 (as IgG)
In test [6], B4 came in with a koff of 0.00424 s⁻¹ and a kon of 20600 M⁻¹ s⁻¹. In test [3], this molecule gave a Kd of 55.6 nM, a koff of 0.00179 s⁻¹ and a kon of 32200 M⁻¹ s⁻¹.

B5: Fab317 (Fab, V domains shown)
VH: QMQLVESGGGVVQPGRSLRLSCTASGFTFSTYAMHWVRQSPGQGLQWVAVISYHSTNKYYEDSVRGRFTISRDNSKNTLYLQMNSLRAEDTAVYYCARDGYSSSFFDFWGQGTLVTVSS
VL: DIQMTQSPSTLSASVGDRVAITCRASQSISRWLAWYQQQPGKAPKLLMSGASVLESGVPSRFSGSGSGTEFTLTISSLQPDDFATYYCQHYNSYFVTFGQGTKVEIK
notes: Fab heavy chain; in the cited structure of Fab317, PDB 6AXL; Fab light chain; NANP-only antibody used for comparison; source: purified
B5: the binding result in test [4] was “no binding (tested: 8000 nM)”. In test [1], this molecule showed a Kd of 25 nM.

B6: Fab317 (Fab, V domains shown)
VH: B5 VH
VL: B5 VL
notes: heavy chain of Fab317 in the cited crystal structure PDB 6AXL; light chain of Fab317 in the cited crystal structure PDB 6AXL; also called mAb317 (as IgG)
Take B6: in test [6], the binding result is on record as “no binding (tested: 8000 nM)”. Further, in test [3], the koff came to 0.00146 s⁻¹ and the kon was 58400 M⁻¹ s⁻¹.

Values taken from paper PMC7082059 (PLoS Pathogens, 2020).
